# Assay results reported in patent US20060235215A1 (published 2006).
# T1: Novel Protein PN22154, Similar to A. thaliana Glutamyl Aminopeptidase, prey clone aa 390-562 (Oryza sativa, UniProt Q6Z6L4 390-562)
# T1 construct: prey; AD fusion; input trait library; also called OsPN22154
# T1 sequence: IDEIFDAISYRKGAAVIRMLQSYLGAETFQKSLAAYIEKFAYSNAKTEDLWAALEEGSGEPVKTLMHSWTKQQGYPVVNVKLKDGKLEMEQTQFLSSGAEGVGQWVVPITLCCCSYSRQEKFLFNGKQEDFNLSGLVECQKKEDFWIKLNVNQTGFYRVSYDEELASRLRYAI
# T2: O. sativa Catalase A Isozyme, prey clone aa 332-433 (Oryza sativa, UniProt P0C549 332-433)
# T2 construct: prey; AD fusion; input trait library; also called OsCATA; PN20899
# T2 sequence: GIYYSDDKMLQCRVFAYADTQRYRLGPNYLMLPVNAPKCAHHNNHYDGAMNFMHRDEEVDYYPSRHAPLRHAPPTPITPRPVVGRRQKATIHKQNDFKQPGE
# T3: O. sativa Cellulose Synthase Catalytic Subunit, RSW1-Like, prey clone aa 411-489 (Oryza sativa, UniProt A2Y0X2 411-489)
# T3 construct: prey; AD fusion; input trait library; also called OsCS; PN19707
# T3 sequence: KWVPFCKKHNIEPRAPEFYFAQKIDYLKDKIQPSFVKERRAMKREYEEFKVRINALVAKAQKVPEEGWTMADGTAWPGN
# T4: O. sativa Putative 14-3-3 Protein, prey clone aa 53-259 (Oryza sativa, UniProt Q06967 53-259)
# T4 construct: prey; AD fusion; input trait library; four clones; also called Os008938-3209; PN20215
# T4 sequence: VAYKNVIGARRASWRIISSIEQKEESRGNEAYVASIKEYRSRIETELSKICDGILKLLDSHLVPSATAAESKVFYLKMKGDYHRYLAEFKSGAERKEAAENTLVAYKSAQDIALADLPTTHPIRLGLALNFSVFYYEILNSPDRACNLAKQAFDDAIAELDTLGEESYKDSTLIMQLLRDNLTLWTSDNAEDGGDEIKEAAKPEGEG
# T5: Beta-Expansin EXPB2, prey clone aa 80-207 (Oryza sativa, UniProt O24230 80-207)
# T5 construct: prey; AD fusion; input trait library; also called OsEXPB2; PN19902
# T5 sequence: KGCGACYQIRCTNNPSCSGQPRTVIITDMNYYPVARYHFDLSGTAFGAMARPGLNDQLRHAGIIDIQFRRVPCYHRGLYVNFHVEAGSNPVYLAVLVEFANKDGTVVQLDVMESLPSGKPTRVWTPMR
# T6: Novel Protein 23053, Fragment, Similar to Arabidopsis Putative Na+-Dependent Inorganic Phosphate … (Oryza sativa, UniProt Q8W0H5 141-320)
# T6 construct: prey; AD fusion; input trait library; two clones; also called OsPN23053
# T6 sequence: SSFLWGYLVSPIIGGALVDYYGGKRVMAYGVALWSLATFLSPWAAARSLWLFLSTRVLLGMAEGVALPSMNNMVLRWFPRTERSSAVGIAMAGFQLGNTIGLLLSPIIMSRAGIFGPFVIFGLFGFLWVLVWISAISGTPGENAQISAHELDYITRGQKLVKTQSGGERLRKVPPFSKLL
# T7: Beta-Expansin EXPB2, prey clone aa 80-218 (Oryza sativa, UniProt O24230 80-218)
# T7 construct: prey; AD fusion; input trait library; two clones; also called OsEXPB2; PN19902
# T7 sequence: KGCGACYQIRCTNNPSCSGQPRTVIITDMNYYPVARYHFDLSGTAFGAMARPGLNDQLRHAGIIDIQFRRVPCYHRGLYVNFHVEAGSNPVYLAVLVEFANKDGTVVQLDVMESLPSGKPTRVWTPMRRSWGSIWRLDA
# T8: Novel Protein PN23485, Similar to Hordeum vulgare Coproporphyrinogen III Oxidase, chloroplast precursor, prey … (Oryza sativa, UniProt Q7XPL2 165-318)
# T8 construct: prey; AD fusion; output trait library; also called OsPN23485
# T8 sequence: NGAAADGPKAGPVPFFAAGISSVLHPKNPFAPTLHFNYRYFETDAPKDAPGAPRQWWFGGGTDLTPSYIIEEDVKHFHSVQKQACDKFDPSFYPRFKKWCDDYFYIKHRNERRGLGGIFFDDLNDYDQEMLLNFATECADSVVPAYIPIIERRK
# B1: Hypothetical Protein 006819-2510, Similar to Hemerocallis Senescence-Related Protein 5, bait fragment aa 1-273 (other)
# chain: MAFRLSNSLLGILNAVTFLLSVPVLGGGIWLATRADGTECERYFSAPVIAFGVFLLLVSLAGLVGACCRVNCLLWFYLVAMFVLIVVLFCFTVFAFVVTNKGAGEAVSGRGYKEYRLGDYSNWLQKRMENSKNWNRIRSCLQDSKVCKKLQDKNWDRTQFFKADLSPLESGCCKPPSSCNFLYVSGTNWTKVPTNSSDPDCNTWVDDGTQLCYNCQSCKAGAVATLKRDWKRVAVVCIVFLVFIVIVYSLGCCAFRNNRRDNRGAYRGAAWKG
# notes: bait; also called Os006819-2510; PN20462
# Key:
# Assay in all cases: yeast two-hybrid
# [1] = biological target: T1, Novel Protein PN22154, Similar to A. …
# Protocol: (§1) Yeast carrying the target gene construct was combined with yeast carrying the activation domain library. The two yeast strains mated to form diploid yeast and were plated on media that selected for expression of one or more Ga14p-responsive reporter genes. Thus, both hybrid proteins (i.e., the target “bait” protein and the activation domain “prey” protein) were expressed in a yeast reporter strain where an interaction between the test proteins results in transcription of the reporter genes […]. Colonies that arose after incubation were selected for further characterization. The activation domain plasmid was isolated from each colony obtained in the two-hybrid search. The sequence of the insert in this construct was obtained by sequence analysis (e.g., Sanger's dideoxy nucleotide chain termination method; see Ausubel et al., 1988, including updates up to 2002). Thus, the identity of positives obtained from these searches was determined by sequence analysis against proprietary and public (e.g., GENBANK®) nucleic acid and protein databases.
# (§2) This example provides newly characterized rice proteins interacting with a rice chitinase, class III (OsCHIB1), and with rice cellulose synthase catalytic subunit, RSW1-like (OsCS). An automated, high-throughput yeast two-hybrid assay technology (provided by Myriad Genetics Inc., Salt Lake City, Utah) was used to search for protein interactions with the chitinase and cellulose synthase bait proteins.
# [2] = biological target: T2, O. sativa Catalase A Isozyme, prey …
# Protocol: as §1, §2
# [3] = biological target: T3, O. sativa Cellulose Synthase Catalytic …
# Protocol: as §1, §2
# [4] = biological target: T4, O. sativa Putative 14-3-3 Protein, prey …
# [5] = biological target: T5, Beta-Expansin EXPB2, prey clone aa …
# [6] = biological target: T6, Novel Protein 23053, Fragment, Similar …
# [7] = biological target: T7, Beta-Expansin EXPB2, prey clone aa …
# [8] = biological target: T9, O. sativa Histone Deacetylase HD1, prey clone aa 90-221 (Oryza sativa, UniProt Q7Y0Y8 90-221)
# T9 construct: prey; AD fusion; output trait library; also called OsAAK01712; PN24059
# [9] = biological target: B1
# [10] = biological target: T8, Novel Protein PN23485, Similar to …
# T9 sequence (Q7Y0Y8 90-221): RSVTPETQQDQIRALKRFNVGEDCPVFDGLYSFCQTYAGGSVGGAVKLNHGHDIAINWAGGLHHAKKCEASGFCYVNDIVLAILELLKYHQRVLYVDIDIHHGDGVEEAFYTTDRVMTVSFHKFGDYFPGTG
binder,measurement,setting,value
"O. sativa Chitinase, Class III, bait fragment aa 10-200 (enzyme, bait; also called OsCHIB1; PN19651) YIGAQFTGVRFSDVPVNPGLSFHFILAFAIDYFMATQSSKPAPANGVFAPYWDTANLSPAAVAAAKAAHPNLSVILALGGDTVQNTGVNATFAPTSSVDAWVRNAADSVSGLIDAYGLDGVDVDYEHFAAGVDTFVECIGRLLTELKARHPNIATSIAPFEHPVVQRYYQPLWRRYAGVIDYVNFQFYGYG",binding result,[1],binds
same,binding result,[2],binds
same,binding result,[3],binds
"O. sativa Chilling-Inducible Protein CAA90866, bait clone aa 100-250 (other, bait; also called OsCAA90866; PN20311) GEMTERVAQEDRIPVLKASQDHLKEFISICEALELISEDELEISRQKNLIPWQIEEHRRLHGSSAKRLQKQSSRIKERKERRRRHESSCLSAPIELGGDLLRMMEKEREGMVSYYLIGSIEGFDLLDMLKKEEEIVPAVKEGKRRMVMHLL",binding result,[4],binds
"O. sativa Defender Against Apoptotic Death 1, bait clone aa 1-115 (other, bait; text says OsDAD1 has 114 aa; also called OsDAD1; PN20251) MPRATSDAKLLIQSLGKAYAATPTNLKIIDLYVVFAVATALIQVVYMGIVGSFPFNSFLSGVLSCIGTAVLAVCLRIQVNKDNKEFKDLPPERAFADFVLCNLVLHLVIMNFLG",binding result,[5],binds
"O. sativa Defender Against Apoptotic Death 1, bait clone aa 30-115 (other, bait; text says OsDAD1 has 114 aa; also called OsDAD1; PN20251) DLYVVFAVATALIQVVYMGIVGSFPFNSFLSGVLSCIGTAVLAVCLRIQVNKDNKEFKDLPPERAFADFVLCNLVLHLVIMNFLG",binding result,[6],binds
same,binding result,[7],binds
"Hypothetical Protein 006819-2510, Similar to Hemerocallis Senescence-Related Protein 5, bait fragment aa 1-150 (other, bait; also called Os006819-2510; PN20462) MAFRLSNSLLGILNAVTFLLSVPVLGGGIWLATRADGTECERYFSAPVIAFGVFLLLVSLAGLVGACCRVNCLLWFYLVAMFVLIVVLFCFTVFAFVVTNKGAGEAVSGRGYKEYRLGDYSNWLQKRMENSKNWNRIRSCLQDSKVCKKL",binding result,[8],binds
"Novel Protein PN23226, Callose synthase, prey clone aa 345-432 (other, prey; AD fusion; output trait library; also called OsPN23226) WFMSNQETSFVTIGQRVLANPLRVRFHYGHPDIFDRLFHLTRGGVSKASKIINLSEDIFAGFNSTLREGNVTHHEYMQVGKGRDVGLN",binding result,[9],binds
B1,binding result,[10],binds
